Here are results for 41 sequences from the nanobody polyreactivity screen of Harvey et al. (2022).

A short description of this data set: yeast display, Sf9 membrane polyspecificity reagent, FACS + sequencing; frameworks hold sequencing errors. In short, it runs like this: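 In a synthetic yeast display library (Saccharomyces cerevisiae BJ5465), nanobody expression was induced with galactose for 36–48 hours. FACS gates were set low and high (top ~1%) using anti-HA fluorescence for expression and streptavidin fluorescence for binding of the Sf9 membrane reagent. Each polyreactivity label is drawn from the gate of origin.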
With “QVQLVESGGGLVQAGGSLRLSCAASGSILEPYAMGWYRQAPGKERELVAAISSSGGSTRYADSVKGRFTISRDNAKNTVYLQMNSLKPEDTAVYYCAARFRAKFNYWGQGTQVTVSS”, the “polyreactivity (PSR sort gate)” value is “low polyreactivity”.
To “QVQLVESGGGLVQAGGSLRLSCAASGSILEVYAMGWYRQAPGKERELVAAISDGDSTYYADSVKGRFTISRDNAKNTVYLQMNSLKPEDTAVYYCAAEFVGTLWWYDDWGQGTQVTVSS” belongs “low polyreactivity”; to “QVQLVESGGGLVQAGGSLRLSCAASGSILFANAMGWYRQAPGKERELVAAIRGSGSTYYADSVKGRFTISRDNAKNTVYLQMNSLKPEDTAVYYCAKRHLISIPDYGRHEYDYWGQGTQVTVSS”, “low polyreactivity”.
Turning to “QVQLVESGGGLVQAGGSLRLSCAASGSILFTNAMGWYRQAPGKERELVAAISSGGSTYFADSVKGRFTISRDNAKNTVYLQMNSLKQEDTAVYYCAADQLNVGREYVEYDYWGQGTQVTVSS”, the “polyreactivity (PSR sort gate)” value is on record as “low polyreactivity”.
The result for “QVQLVESGGGLVQAGGSLRLSCAASGSILFTNAMGWYRQAPGKERELVAAISSGGSTYYADSVKGRFTISRDNAKNTVYLQMNSLKPEDTAVYYCAASDHYRWYVHRWEDPFYYWGQGTQVTVSS” reads “low polyreactivity”; that for “QVQLVESGGGLVQAGGSLRLSCAASGSILGGNAMGWSRQAPGKERELVAAITFSGGGTYYADSVKGRFTISRDNAKNTVYLQMNSLKPEDTAVYYCAADKDGYTYEFDYWGQGTQVTVSS”, “low polyreactivity”.
Regarding “QVQLVESGGGLVQAGGSLRLSCAASGSILGHYAMGWYRQAPGKERELVAAISWSGGSTYYADSVKGRFTISRDNAKNTVYLQMNSLKPEDTAVYYCNAAAILYTSAGSLYWYDYWGQGTQVTVSS”, the “polyreactivity (PSR sort gate)” value is given as “low polyreactivity”.
For “QVQLVESGGGLVQAGGSLRLSCAASGSILGIKVMGWYRQAPGKERELVAAISRRGGSTYYADSVKGRFTISRDNAKNTVYLQMNSLKPEDTAVYYCAATRTARTMGYWGQGTQVTVSS”, the “polyreactivity (PSR sort gate)” value is “high polyreactivity”.
Take “QVQLVESGGGLVQAGGSLRLSCAASGSILGRNAMGWYRQAPGKERELVAGITWSTVSTYYADSVKGRFTISRDNAKNTVYLQMNSLKPEDTAVYYCAAAPNLWAYRRWYYTYYYWGQGTQVTVSS”: the “polyreactivity (PSR sort gate)” value is “high polyreactivity”.
Take “QVQLVESGGGLVQAGGSLRLSCAASGSILGTYAMGWYRQAPGKERELVAAISSSGRTSYADSVKGRFTISRDNAKNTVYLQMNSLKPEDTAVYYCNASNYIVLINDPDAAPWLYDYWGQGTQVTVSS”: the “polyreactivity (PSR sort gate)” value is listed as “low polyreactivity”.
Turning to “QVQLVESGGGLVQAGGSLRLSCAASGSILGTYAMGWYRQAPGKERELVARISRGGSTNYADSVKGRFTISRDNAKNTVYLQMNILKPEDTAVYYCAKRLYLPESWRYYYWGQGTQVTVSS”, the “polyreactivity (PSR sort gate)” value is reported as “high polyreactivity”.
In the case of “QVQLVESGGGLVQAGGSLRLSCAASGSILGYYAMGWYRQAPGKERELVAAITASGGSTYYADSVKGRFTISRDNAKNTVYLQMNSLKPEDTAVYYCAARRIAPYGRYDYWGQGTQVTVSS”, the “polyreactivity (PSR sort gate)” value was “low polyreactivity”.
The result for “QVQLVESGGGLVQAGGSLRLSCAASGSILGYYAMGWYRQAPGKERELVAITSGDSTYYADSVKGRFTISRDNAKNTVYLQMNSLKPEDTAVYYCNARYSWKYDYWGQGTQVTVSS” reads “high polyreactivity”.
For “QVQLVESGGGLVQAGGSLRLSCAASGSILGYYVMGWYRQAPGKERELVAAISWSSGSTYYADSVKGRFTISRDNAKNTVYLQMNSLKPEDTAVYYCNAGGVYDEFNYWGQGTQVTVSS”, the “polyreactivity (PSR sort gate)” value is “low polyreactivity”.
The result for “QVQLVESGGGLVQAGGSLRLSCAASGSILHAYAMGWYRQAPGKEREFVAAIRRRGGSTYYADSVKGRFTISRDNAKNTVYLQMNSLKPEDTAVYYCAARFPLIGDSGGKSDYWGQGTQVTVSS” reads “high polyreactivity”.
As to “QVQLVESGGGLVQAGGSLRLSCAASGSILIWNTMGWYRQAPGKERELVAAISSGASTYYADSVKGRFTISRDNAKNTVYLQMNSLKPEDTAVYYFYVDLPRVLTDDSWGQGTQVTVSS”, the “polyreactivity (PSR sort gate)” value was “low polyreactivity”.
With “QVQLVESGGGLVQAGGSLRLSCAASGSILKNNAMGWYRLAPGKERELVAAITYSSGSTYYADSVKGRFTISRDNAKNTVYLQMNSLKPEDTAVYYCAAVYRYRYSFSGGYYWGQGTQVTVSS”, the “polyreactivity (PSR sort gate)” value is “low polyreactivity”.
“QVQLVESGGGLVQAGGSLRLSCAASGSILNGYAMGLYRQAPGKERELVAAISGSGGSTHYADSVKWRFTISRDNAKNTVYLQMNSLKPEDTAVYYCAAAYKWTYYWGQGTQVTVSS”: the “polyreactivity (PSR sort gate)” value is reported as “high polyreactivity”.
“QVQLVESGGGLVQAGGSLRLSCAASGSILNNYAMGWYRQAPGKERELVAAISSSGGTNYADSVKGRFTISRDNAKNTVYLQMYSLKPEDTAVYYCNADVLDGGYDYWGQGTQVTVSS”: the “polyreactivity (PSR sort gate)” value is listed as “low polyreactivity”.
Take “QVQLVESGGGLVQAGGSLRLSCAASGSILQDYAMGWYRQAPGKERELVAAISNSGDSTYYADSVKGRFTISRDNAKNTVYLQMNSLKPEDTAVYYCNAAVYPYALYSGGLDYDYWGQGTQVTVSS”: the “polyreactivity (PSR sort gate)” value is recorded as “low polyreactivity”.
With “QVQLVESGGGLVQAGGSLRLSCAASGSILQRNAMGWYRQAPGKERELVAAISSSGDNTYYADSVKGRITISRDNAKNTVYLQMNSLKPEDTAVYYCATDADIYFQEYDYWGQGTQVTVSS”, the “polyreactivity (PSR sort gate)” value is listed as “low polyreactivity”.
To “QVQLVESGGGLVQAGGSLRLSCAASGSILQTYAMGWYRQAPGKERELVAAITWSVVSTYYADSVKGRFTISRDNAKNTVYLQMNSLKPEDTAVYYCNARSFGDPGNAYDYWGQGTQVTVSS” belongs “high polyreactivity”; to “QVQLVESGGGLVQAGGSLRLSCAASGSILRGYAMGWYRQAPGKERELVAAITWNGGSTYYADSVKGRFTISRDNAKNTVYLQMNSLKPEDTAVYYCNRAIGPYSYPDNYWGQGTQVTVSS”, “high polyreactivity”; to “QVQLVESGGGLVQAGGSLRLSCAASGSILRLYVMGWYRQAPGKERELVADISDRGGSTYYADSVKGRFTISRDNAKNTVYLQMNSLKPEDTAVYYCAAEWGQSGGGGYYYWGQGTQVTVSS”, “low polyreactivity”.
Take “QVQLVESGGGLVQAGGSLRLSCAASGSILRSNAMGWYRQAPGKERELVAVISNDDSTYYADSVKGRFTISRDNATNTVYLQMNSLKPEDTAVYYCNAVYYYFFRWHPIYDSWGQGTQVTVSS”: the “polyreactivity (PSR sort gate)” value is “low polyreactivity”.
As for “QVQLVESGGGLVQAGGSLRLSCAASGSILRTYTMGWYRQAPGKERELVAAISSSGGRTYYADSVKGRFTISRDNAKNTVYLQMNSLKPEDTAVYYCNAGGYRYRSYDYWGQGTQVTVSS”, the “polyreactivity (PSR sort gate)” value was “high polyreactivity”.
The result for “QVQLVESGGGLVQAGGSLRLSCAASGSILSAYAMGWYRQAPGKERELVAAISWSGGSTYYADSVKGRFTISRDNAKNTVYLQMNSLKPEDTAVYYCATVNKKWRRYDYWGQGTQVTVSS” reads “high polyreactivity”.
Turning to “QVQLVESGGGLVQAGGSLRLSCAASGSILSGYAMVWYRQAPGTERELVAAITSGGDTNYADSVKGRFTISRDNAKNTVYLQMNSLKPEETAVYYCAADPSYLGLFGYDYWGQGTQVTVSS”, the “polyreactivity (PSR sort gate)” value is “low polyreactivity”.
“QVQLVESGGGLVQAGGSLRLSCAASGSILSINGMGWYRQAPGKERELVATIDGSDGTTFYADSVKGRFTISRDNAKNTVYLQMNSLKPEDTAVYYCAAENFWQTKEYDYWGQGTQVTVSS”: the “polyreactivity (PSR sort gate)” value is reported as “low polyreactivity”.
As for “QVQLVESGGGLVQAGGSLRLSCAASGSILSQYAMGWYRQAPGKERELVAAITYSGGSTHYADSVKGRFTISRDNAKNTVYLEMNSLKPEDTAVYYCAAKGPRRWGSGLDYWGQGTHVTVSS”, the “polyreactivity (PSR sort gate)” value was “low polyreactivity”.
With “QVQLVESGGGLVQAGGSLRLSCAASGSILSWYAMGWYRQAPGKERELVAAITSGASTYYADSVKGRFTISRDNAKNTVYLQMNSLKPEDTAVYYCAAYPPSQRAEYDYWGQGTQVTVSS”, the “polyreactivity (PSR sort gate)” value was “low polyreactivity”.
With “QVQLVESGGGLVQAGGSLRLSCAASGSILSYNTMGWYRHAPGKEREFVACITYSGSRTYYADSVKGRFTISRDKAKNTDYLQMNSLKPEDTAVYYCAKRNYYLLYWGQGTQVTVSS”, the “polyreactivity (PSR sort gate)” value is “high polyreactivity”.
Take “QVQLVESGGGLVQAGGSLRLSCAASGSILSYYVMGWYRQAPGKERELVAAITSDGSTNYADSVKGRFTISRDNAKNTVYLQMNSQKPEDTAVYYCAAVIAWYYGVQDVYYLGLYDYWGQGTQVTVSS”: the “polyreactivity (PSR sort gate)” value was “low polyreactivity”.
“QVQLVESGGGLVQAGGSLRLSCAASGSILTDNAMGWYRQAPGKERELVAAITSSGNTNYADSVKGRFTISRDNAKNTVYLQMKSLKPEDTAVYYCAAVSYYKHWTDWLPVGEDYWGQGTQVTVSS”: the “polyreactivity (PSR sort gate)” value is listed as “low polyreactivity”.
The result for “QVQLVESGGGLVQAGGSLRLSCAASGSILTDYAMGWYRQAPGKERELVATISNGGSTNYADSVKGRFTISRDNAKNTVYLQMNSLKPEDTAVYYCNAEPGVPSWELDYWGQGTQVTVSS” reads “low polyreactivity”; that for “QVQLVESGGGLVQAGGSLRLSCAASGSILTHYAMGRYRPAPGKERELVAAITWRGGSTYYADSVKGRFTISRDNAKNTVYLQMNSLKTEDTAVYYCAADLSYPDWSRYQWDMDYWGQGTQLTVSS”, “low polyreactivity”.
As to “QVQLVESGGGLVQAGGSLRLSCAASGSILTYNFMGWYRQAPGKERELVASISWSGGRTYYADSVKGRFTISRDNAKNTVYLQMNSLKPEDTAAAYCAVSQSWYWYYASDYWGQGTQVTVSS”, the “polyreactivity (PSR sort gate)” value is on record as “low polyreactivity”.
Turning to “QVQLVESGGGLVQAGGSLRLSCAASGSILVDYAMGWYRQAPGKERELVASITRDGSTNYADSVKGRFTISRDNAKNTVYLQMNSLKPEDTAVYYCAAKYAWRLLEMYYWGQGTQVTVSS”, the “polyreactivity (PSR sort gate)” value is reported as “low polyreactivity”.
On to “QVQLVESGGGLVQAGGSLRLSCAASGSILVHYAMGWYRPAPGKEWELVAAISSVGSTNYADSVKGRFTMTRDNAKNTVYLQMNSLKPEDTAVYYCAARASRWYIAVDYWRQGTQVTVSS”, for which the “polyreactivity (PSR sort gate)” value is reported as “low polyreactivity”.
The result for “QVQLVESGGGLVQAGGSLRLSCAASGSILVNMGWYRQPPGKERELVAAIRYGGGRTYYADSVKGRFTISRDNAKNTVYLQMNSLKPEDTAVYYCAASQGRSYYYWGQGTQVTVSS” reads “low polyreactivity”.
Take “QVQLVESGGGLVQAGGSLRLSCAASGSILVRYAMGWYRQAPGKERELVAAITYSGGSTYYADSVKGRFTISRDNAKNTVYLQMNSLKPEDTAVYYCAADVWWSYYRYDYWGQGTQVTVSS”: the “polyreactivity (PSR sort gate)” value is given as “low polyreactivity”.
